Source: patent US20160176956A1 (Novartis, published 2016)
Residue numbers refer to the chain shown, from its start. In names and notes the source's numbering stands. Where two headings read alike, the source gives them in different places.

Key:
[1] = molecular target: T1, human BMP5 (human, UniProt P22003 317-454, limits assumed); assay: specificity ELISA, coated antigen, IgG 0.2 uM
T1 sequence: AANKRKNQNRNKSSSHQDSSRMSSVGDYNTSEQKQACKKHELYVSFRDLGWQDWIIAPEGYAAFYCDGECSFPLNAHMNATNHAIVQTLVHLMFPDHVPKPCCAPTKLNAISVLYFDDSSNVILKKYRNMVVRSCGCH
Method: (§1) After washing the plates three times with 100 uL TBST, each antigen was incubated with 40 uL of purified Fab or IgG samples at a concentration of 1 uM and 0.2 uM respectively (in PBST buffer).
(§2) After 2 h incubation at RT, the plates were again washed three times and bound Fabs/IgGs detected by adding 40 uL of a 1:5000 dilution of secondary AP-conjugated anti-human IgG F(ab2) antibody. After 1 h at RT, the signal was developed by adding 40 uL AttoPhos substrate according to the manufacturer's protocol and the plates were analyzed immediately using an excitation wavelength of 430 nm and an emission wavelength of 535 nm with an ELISA plate reader.

[2] = molecular target: T2, mouse BMP6 (mouse, UniProt P20722 372-510, limits assumed); assay: specificity ELISA, coated antigen, IgG 0.2 uM
T2 construct: also called mBMP6; mBMP6_RD
T2 sequence (looked up): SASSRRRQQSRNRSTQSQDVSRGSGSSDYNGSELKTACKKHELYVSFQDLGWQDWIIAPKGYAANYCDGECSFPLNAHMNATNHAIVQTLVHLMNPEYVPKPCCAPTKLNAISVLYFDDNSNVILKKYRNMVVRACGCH
Method: as §1, §2

[3] = molecular target: T3, human BMP7 (human, UniProt P18075 293-431); assay: specificity ELISA, coated antigen, IgG 0.2 uM
T3 sequence: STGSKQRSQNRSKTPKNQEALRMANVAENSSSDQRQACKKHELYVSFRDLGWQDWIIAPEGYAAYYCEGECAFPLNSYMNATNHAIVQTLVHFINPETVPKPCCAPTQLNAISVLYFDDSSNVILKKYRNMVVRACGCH
Method: as §1, §2

[4] = molecular target: T4, human BMP6 (human, UniProt P22004 382-513, limits assumed); assay: specificity ELISA, coated antigen, IgG 0.2 uM
T4 sequence: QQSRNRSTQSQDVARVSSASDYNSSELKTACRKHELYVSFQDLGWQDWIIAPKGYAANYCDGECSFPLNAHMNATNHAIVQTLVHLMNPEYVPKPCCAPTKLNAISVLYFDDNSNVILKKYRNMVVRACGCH
Method: as §1, §2

[5] = molecular target: T5, Bovine serum albumin (bovine, UniProt P02769 25-607); assay: specificity ELISA, coated antigen, IgG 0.2 uM
T5 construct: unrelated control antigen in the specificity ELISA; also called BSA
T5 sequence (P02769 25-607 limits assumed): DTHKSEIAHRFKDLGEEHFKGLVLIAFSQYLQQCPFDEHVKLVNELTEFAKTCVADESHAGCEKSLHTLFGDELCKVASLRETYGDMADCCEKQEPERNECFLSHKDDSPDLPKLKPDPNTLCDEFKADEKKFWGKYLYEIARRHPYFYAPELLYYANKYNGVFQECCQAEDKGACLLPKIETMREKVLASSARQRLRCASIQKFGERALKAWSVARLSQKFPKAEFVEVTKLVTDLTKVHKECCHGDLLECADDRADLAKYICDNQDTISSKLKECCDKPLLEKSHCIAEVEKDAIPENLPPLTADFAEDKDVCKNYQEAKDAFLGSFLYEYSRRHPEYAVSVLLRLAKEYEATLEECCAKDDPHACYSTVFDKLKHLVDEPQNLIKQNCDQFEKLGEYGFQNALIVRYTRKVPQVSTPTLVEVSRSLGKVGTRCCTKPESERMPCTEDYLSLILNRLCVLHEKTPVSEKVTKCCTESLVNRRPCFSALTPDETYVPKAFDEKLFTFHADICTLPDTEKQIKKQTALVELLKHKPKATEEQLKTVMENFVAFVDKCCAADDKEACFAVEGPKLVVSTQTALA
Method: as §1, §2

[6] = molecular target: T4, human BMP6; assay: Biacore
[7] = molecular target: T4, human BMP6; assay: cell-based or functional assay
[8] = molecular target: T3, human BMP7; assay: cell-based or functional assay
[9] = molecular target: T4, human BMP6; assay: cell-based or functional assay; remark: listed apart in the source
[10] = molecular target: T6, human BMP2 (human, UniProt P12643 283-396); assay: cell-based or functional assay
T6 sequence (P12643 283-396 limits assumed): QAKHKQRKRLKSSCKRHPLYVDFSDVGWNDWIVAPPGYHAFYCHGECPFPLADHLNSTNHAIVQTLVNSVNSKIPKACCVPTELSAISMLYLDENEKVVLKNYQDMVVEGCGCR

[11] = molecular target: T4, human BMP6; assay: method not stated in the table (Table 7 names Biacore)
[12] = molecular target: T4, human BMP6; assay: cell-based or functional assay; remark: listed apart in the source
[13] = molecular target: 384 purified extracellular or secretory proteins (Protagen UNIchip); assay: Protagen UNIchip protein chip with 384 purified extracellular or secretory proteins, purified hIgG1
[14] = molecular target: T4, human BMP6; assay: cell-based or functional assay; remark: listed apart in the source
[15] = molecular target: T3, human BMP7; assay: cell-based or functional assay; remark: listed apart in the source
[16] = molecular target: T4, human BMP6; assay: cell-based or functional assay; remark: listed apart in the source
[17] = molecular target: T6, human BMP2; assay: cell-based or functional assay; remark: listed apart in the source
[18] = molecular target: T1, human BMP5; assay: cell-based or functional assay
[19] = molecular target: T1, human BMP5; assay: cell-based or functional assay; remark: listed apart in the source
[20] = molecular target: T5, Bovine serum albumin; assay: ELISA on coated antigen, detection with anti-Fab-AP, fluorescence signal intensity
[21] = molecular target: T4, human BMP6; assay: ELISA binding assay; reference human BMP7
[22] = molecular target: T6, human BMP2; assay: cell-based or functional assay; remark: listed apart in the source

Molecule: Control IgG (antibody)
- Signal over background [1]: 4
- Signal over background [2]: 18
- Signal over background [3]: 14
- Signal over background [4]: 61
- Signal over background [5]: 1

B1: Antibody 5 (antibody, human IgG1, lambda, V domains shown)
VH: QVQLVESGGGLVKPGGSLRLSCAASGFTFSSYVVHWVRQAPGKGLEWVGRIKRESSSYTTMYAAPVKGRFTISRDDSKNTLYLQMNSLKTEDTAVYYCARVERSKSGFDNWGQGTLVTVSS
VL: QSVLTQPPSVSGAPGQRVTISCTGSSSNIGAGYSVHWYQQLPGTAPKLLIYGQSERPSGVPDRFSGSKSGTSASLAITGLQAEDEADYYCQSWDSSQTLVVFGGGTKLTVLG
notes: germlined clone of NOV0787 (HCDR2-matured NOV0442_VL[Y49,G50,N51Q]); human IgG1; lead antibody; also called NOV0951; NOV951
- Kd [6]: ~0.1 nM
- IC50(ug/ml) BMP6 reporter [7]: 0.06 µg/mL
- selectivity window of BMP6 over this BMP (BRE-luc reporter) [8]: ≥ 500 fold
- BRE-luc reporter IC50 in Hep3B [9]: 0.4 nM
- selectivity window of BMP6 over this BMP (BRE-luc reporter) [10]: ≥ 500 fold
- Kd [11]: 0.1 nM
- BRE-Luc RGA IC50 [12]: 0.26 nM
- RGA selectivity, hBMP6 over hBMP7 [12]: ~1000 fold
- off-target hits [13]: < 10 hits
- IC50 (read off the curve); BMP6-induced BRE-luc reporter activity in HEP3B cells [14]: ~0.5 nM
- RGA IC50 [15]: 25 µg/mL
- RGA max [15]: 1
- RGA min [15]: 0.5
- RGA IC50 [16]: 0.04 µg/mL
- RGA max [16]: 0.9
- RGA min [16]: 0.02
- RGA IC50 [17]: > 25 µg/mL
- RGA max [17]: 1
- RGA min [17]: 0.9
- Signal over background [2]: 24
- Signal over background [3]: 8
- Signal over background [4]: 65
- Signal over background [5]: 1

B2: Antibody 3 (antibody, human IgG1, lambda, V domains shown)
VH: B1 VH with R53D, E54H, S55K, S56Q, S57G, M61A, P65S
VL: B1 VL with Q53S
notes: germlined clone of NOV0800 (HCDR2-matured NOV0442_VL[Y49,G50,N51S]); human IgG1; back-up antibody; also called NOV0961; NOV961
- RGA IC50 [18]: > 25 µg/mL
- RGA max [18]: 0.9
- RGA min [18]: 0.8
- RGA IC50 [15]: > 25 µg/mL
- RGA max [15]: 1
- RGA min [15]: 0.8
- RGA IC50 [16]: 0.08 µg/mL
- RGA max [16]: 0.9
- RGA min [16]: 0.02
- RGA IC50 [17]: > 25 µg/mL
- RGA max [17]: 1
- RGA min [17]: 0.8
- Signal over background [1]: 1
- Signal over background [2]: 29
- Signal over background [3]: 2
- Signal over background [4]: 48
- Signal over background [5]: 1

B3: Antibody 6 (antibody, human IgG1, lambda, V domains shown)
VH: B1 VH with I51T, K52R, R53H, E54S, S55D, S56M, S57G, T59A, M61S
VL: B1 VL
notes: germlined clone of NOV0798 (HCDR2-matured NOV0442_VL[Y49,G50,N51Q]); human IgG1; lead antibody; also called NOV0954; NOV954
- Kd [6]: ~0.1 nM
- IC50(ug/ml) BMP6 reporter [7]: 0.08 µg/mL
- selectivity window of BMP6 over this BMP (BRE-luc reporter) [19]: ≥ 500 fold
- selectivity window of BMP6 over this BMP (BRE-luc reporter) [8]: ≥ 500 fold
- BRE-luc reporter IC50 in Hep3B [9]: 0.4 nM
- selectivity window of BMP6 over this BMP (BRE-luc reporter) [10]: ≥ 500 fold
- Kd [11]: < 0.1 nM
- BRE-Luc RGA IC50 [12]: 0.3 nM
- RGA selectivity, hBMP6 over hBMP7 [12]: ~1000 fold
- off-target hits [13]: < 10 hits
- IC50 (read off the curve); BMP6-induced BRE-luc reporter activity in HEP3B cells [14]: ~0.5 nM
- RGA IC50 [18]: > 25 µg/mL
- RGA max [18]: 1
- RGA min [18]: 0.9
- RGA IC50 [15]: 25 µg/mL
- RGA max [15]: 0.9
- RGA min [15]: 0.5
- RGA IC50 [16]: 0.05 µg/mL
- RGA max [16]: 1
- RGA min [16]: 0.02
- RGA IC50 [17]: > 25 µg/mL
- RGA max [17]: 1
- RGA min [17]: 1
- Signal over background [1]: 2
- Signal over background [2]: 29
- Signal over background [3]: 3
- Signal over background [4]: 38
- Signal over background [5]: 1

B4: Antibody 7 (antibody, human IgG1, lambda, V domains shown)
VH: B1 VH with K52R, R53L, S55T, S56H, S57G, T59A, T60A, M61E, P65S
VL: B1 VL
notes: germlined clone of NOV0806 (HCDR2-matured NOV0442_VL[Y49,G50,N51Q]); human IgG1; final lead; also called NOV0958; NOV958
- Kd [6]: ~0.1 nM
- binding result [20]: no binding (tested: not given on the sheet)
- IC50(ug/ml) BMP6 reporter [7]: 0.07 µg/mL
- selectivity window of BMP6 over this BMP (BRE-luc reporter) [19]: ≥ 500 fold
- selectivity window of BMP6 over this BMP (BRE-luc reporter) [8]: ≥ 500 fold
- BRE-luc reporter IC50 in Hep3B [9]: 0.4 nM
- Kd [11]: 0.1 nM
- BRE-Luc RGA IC50 [12]: 0.26 nM
- RGA selectivity, hBMP6 over hBMP7 [12]: ~1000 fold
- off-target hits [13]: < 10 hits
- IC50 (read off the curve); BMP6-induced BRE-luc reporter activity in HEP3B cells [14]: ~0.5 nM
- RGA IC50 [18]: > 25 µg/mL
- RGA max [18]: 1.1
- RGA min [18]: 1.1
- RGA IC50 [15]: 25 µg/mL
- RGA max [15]: 0.9
- RGA min [15]: 0.5
- RGA IC50 [16]: 0.04 µg/mL
- RGA max [16]: 0.9
- RGA min [16]: 0.02
- Signal over background [2]: 32
- Signal over background [3]: 7
- Signal over background [4]: 59
- Signal over background [5]: 1
- fold selectivity for human BMP6 over human BMP7 [21]: > 500 fold
- RGA IC50 [22]: > 25 µg/mL
- RGA max [22]: 0.9
- RGA min [22]: 1.1
- selectivity window of BMP6 over this BMP (BRE-luc reporter) [22]: > 500 fold
